Here are results for three molecules from patent publication US20250129173A1 (SHENYANG SUNSHINE PHARMACEUTICAL, published 2025).

By EC50 is commonly meant the concentration at which the effect is half-maximal.

Several values for one entry are separate records, joined by “and”; a condition that tells them apart may be missing. Equal values may be shown once.

Test [1] addresses T1, mouse PRLR protein (Beijing Sinobiological, item No. 50457-M08H) (mouse, UniProt Q08501 20-229).
T1 construct: Bought; also called murine-derived PRLR-ECD
T1 sequence (looked up): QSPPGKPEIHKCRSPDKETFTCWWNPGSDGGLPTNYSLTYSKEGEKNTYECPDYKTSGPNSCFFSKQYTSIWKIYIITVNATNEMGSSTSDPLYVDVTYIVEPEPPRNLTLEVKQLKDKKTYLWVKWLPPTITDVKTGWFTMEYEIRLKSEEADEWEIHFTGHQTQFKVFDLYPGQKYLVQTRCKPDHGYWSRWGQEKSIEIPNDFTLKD
As to the kind of experiment: indirect ELISA, coated mouse PRLR protein. The protocol: A mouse PRLR protein (purchased from Beijing Sinobiological Company, item No. 50457-M08H), i.e., mouse PRLR, was coated in a 96-well ELISA plate according to 0.5 μg/well. The cross-reactivity of SPGA02-ch18, and SPGA02-ch260 to the mouse PRLR was determined. Other specific experimental methods were referred to Embodiment 8.
On the technique in general: ELISA stands for enzyme-linked immunosorbent assay.

The target in test [2] is T2, recombinant human PRLR-ECD protein (Acro, item No. PRR-H52Ha) (human, UniProt P16471 25-234).
T2 construct: Bought protein; also called PRLR-His
T2 sequence: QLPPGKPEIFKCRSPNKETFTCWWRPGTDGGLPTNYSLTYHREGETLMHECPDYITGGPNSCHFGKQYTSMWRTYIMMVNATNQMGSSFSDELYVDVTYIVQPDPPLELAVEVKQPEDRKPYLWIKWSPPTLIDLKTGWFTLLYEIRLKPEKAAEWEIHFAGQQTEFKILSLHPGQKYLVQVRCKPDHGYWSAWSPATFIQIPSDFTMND
As to the kind of experiment: indirect ELISA, coated human PRLR-ECD.

Test [3] deals with T3, human PRLR on the cell surface (T47D human breast cancer cells; BAF3-huPRLR cells) (human, UniProt P16471 25-622).
T3 construct: whole, on cells; Used for both T47D (endogenous) and BAF3-huPRLR (stably overexpressing) cells; also called PRLR antigen on the surface of the T47D cell
T3 sequence (looked up): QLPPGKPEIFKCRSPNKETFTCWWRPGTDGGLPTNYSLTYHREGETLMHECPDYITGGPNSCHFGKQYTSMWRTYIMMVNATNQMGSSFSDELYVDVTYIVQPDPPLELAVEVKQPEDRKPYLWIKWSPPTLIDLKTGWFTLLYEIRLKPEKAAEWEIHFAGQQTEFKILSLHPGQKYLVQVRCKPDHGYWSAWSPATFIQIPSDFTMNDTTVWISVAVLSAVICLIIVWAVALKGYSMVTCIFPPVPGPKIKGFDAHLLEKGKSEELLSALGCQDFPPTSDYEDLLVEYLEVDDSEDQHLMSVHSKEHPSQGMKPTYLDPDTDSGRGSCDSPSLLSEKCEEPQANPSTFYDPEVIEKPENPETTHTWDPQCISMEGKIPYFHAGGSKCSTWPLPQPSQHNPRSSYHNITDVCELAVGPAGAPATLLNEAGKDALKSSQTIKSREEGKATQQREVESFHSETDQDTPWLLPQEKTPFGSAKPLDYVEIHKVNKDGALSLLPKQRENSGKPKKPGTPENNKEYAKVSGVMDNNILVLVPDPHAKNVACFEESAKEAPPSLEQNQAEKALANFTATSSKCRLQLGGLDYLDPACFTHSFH
As to the kind of experiment: flow cytometry on T47D cells. The protocol: In this experiment, a human mammary ductal carcinoma cell T47D was used as a target cell, and SPGA02-260 was used as a primary antibody. SPGA02-260 was serially diluted from 20 μg/mL in six gradients according to a 6-fold gradient. An antibody diluted with a 100 μL gradient and 100 μL of a T47D cell were incubated for 30 min at room temperature (The cell was suspended in 100 μL of an RPMI-1640 serum-free medium (purchased from Gibco, item No.: 61870036). The maximum working concentration of a monoclonal antibody was 10 μg/mL). The cell was washed twice with PBS to remove unbound SPGA02-260. Then, the cell was incubated with 50 μL of anti-murine fluorescent secondary antibody containing 5 μg/mL Alexa Fluor 488 label (purchased from Thermo and Invitrogen, item No.: A11001) at 4° C. for 40 min under light protection. The cell was washed twice with PBS to remove an unbound secondary antibody. Finally, the cell was resuspended in 100 μL of PBS. The binding affinity of SPGA02-260 to the cells was determined by a flow cytometry (purchased from Beckman, model: CytoFLEX). Data obtained were fitted and analyzed by GraphPad Prism6 software.

Test [4] deals with T4, PRLR-ECD Fibronectin type-III 2 polypeptide 7 (189-208) (human, N-terminal biotin (bio-)).
T4 peptide: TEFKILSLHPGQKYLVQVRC
As to the kind of experiment: peptide ELISA.

Test [5] has as its target T2, recombinant human PRLR-ECD protein …. As to the kind of experiment: indirect ELISA, coated human PRLR-ECD 0.5 µg/mL. The protocol: An indirect enzyme-linked immunosorbent assay was used to determine the binding ability of an murine-derived antibody to human PRLR as follows: diluting a recombinant human PRLR-ECD protein to 0.5 μg/mL with a coating solution (a phosphate coating buffer, pH 7.4), adding a solution to an enzyme-labeled plate with 100 μL/well, and coating the plate at 4° C. overnight. The plate was washed once with PBST. 300 μL/well of blocking solution (1% BSA-PBST) was added. The plate was incubated at 37° C. for 2 h and then washed three times with PBST. The purified antibody was diluted to 1 μg/mL with 1% BSA-PBST. After a solution was diluted with 1:3 gradient, the enzyme-labeled plate was added with 100 μL/well, and incubated at 37° C. for 1 h. The plate was washed with PBST 3 times. A HRP-labeled goat anti-mouse IgG secondary antibody (purchased from Abcam, item No.: ab6789) was added and incubate at 37° C. for 30 min. After the plate was washed 3 times with PBST, residual droplets were patted to be dry as much as possible with a blotting paper. 100 μL of TMB (purchased from KPL, item No.: 52-00-03) was added to each well, placed at room temperature (20±5° C.) and protected from light for 5 min. […] An OD value at 450 nm of an enzyme-labeled instrument was read to analyze the binding ability of the antibody to be tested to a target antigen PRLR-His.

In test [6] the target is T3, human PRLR on the cell surface (T47D …). In words: cell-based or functional assay.

B1: chimeric antibody SPGA02-ch260 (antibody, human IgG1, kappa, V domains shown)
VH: QVQLKESGPGLVAPSQSLSITCTVSGFSLTRNGVSWVRQPPGKGLEWLGIIWGDGSTNYHSALISRLSISKDNSKSQVFLKLNSLQTDDTATYYCAKEGLYYYGRYFDVWGAGTTVTVSS
VL: DIVMTQSHKFMSTSVGDRVSITCKASQDVGSAVAWYQQKPGQSPKVLIYWASTRHTGVPDRFTGSGSGTDFTLTISNVQSEDLADYFCQQYSNYPLTFGGGTKLEIRR
notes: Expressed in Expi293F cells; also called SPGA01-ch260
With B1, the EC50 in test [1] was 0.297 µg/mL; in test [2] it was 0.0129 µg/mL and 0.09 nM; in test [3], 0.21 nM and 0.031 µg/mL.

B2: murine-derived anti-human PRLR monoclonal antibody SPGA02-260 (antibody, V domains shown)
VH: B1 VH
VL: DIVMTQSHKFMSTSVGDRVSITCKASQDVGSAVAWYQQKPGQSPKVLIYWASTRHTGVPDRFTGSGSGTDFTLTISNVQSEDLADYFCQQYSNYPLTFGGGTKLEIR
notes: Mouse monoclonal antibody purified from hybridoma supernatant by protein A; also called SPHA02-260
As to B2, the binding result in test [4] was “binds”. The EC50 is 0.0209 µg/mL and 0.14 nM in test [5]; 0.026 µg/mL and 0.17 nM in test [3].

B3: humanized monoclonal antibody SPGA02-hu260 (antibody, human IgG1, kappa, V domains shown)
VH: QVQLQESGPGLVKPSETLSLTCTVSGFSLTRNGVSWIRQPPGKGLEWVGVIWGDGSTNYNSAFMSRVTISVDTSKNQVSLKLSSVTAADTAVYYCAKEGLYYYGRYFDVWGQGTTVTVSS
VL: DIQMTQSPSSLSASVGDRVTITCRASQDVGSALAWYQQKPGKVPKLLIYWASTRHTGVPSRFSGSGSGTDFTLTISSLQPEDVATYYCQQYSNYPLTFGGGTKLEIKR
notes: Expressed in Expi-293F cells
B3: in test [6], the “IC50 of inhibition of growth of BAF3-huPRLR cells (CCK8, 72 h)” value was 8.28 ng/ml and 0.06 nM. Besides, in test [2], the EC50 was 0.00898 µg/mL and 0.06 nM.
